Experimental data published in patent US11957762B2, “Immune tolerant and non-immune tolerant elastin-like recombinant peptides and methods of use” (University of Utah Research Foundation, priority 2015, dated 2024).
Values joined by “and” are separate entries in the source; they are usually repeats but may differ in a detail not shown here. Equal entries are not always repeated.

What was measured:
[1] = Thermally-induced reversible phase transition (turbidity OD350 vs temperature); assay type: physicochemical; details: for Tt (cooling) / Tt (heating): 25 μM in H2O
Source text: Characterization of thermally-induced, reversible, inverse phase transition of iTEPs and the iTEPB-iTEPA-pOVA fusion. The phase transitions of iTEP or iTEP fusions were characterized by turbidity changes of sample solutions as a function of temperature. Specifically, the optical density at 350 nm (OD350) of a sample solution was monitored using an UV-visible spectrophotometer equipped with a multi-cell thermoelectric temperature controller (Cary 300, Varian Instruments, Walnut Creek, CA) while the solution was heated from 20° C. to 80° C. and then cooled to 20° C. at a rate of 1° C./min. The maximum first derivative of the turbidity curve of a sample was identified. The transition temperature (Tt) of the sample is the temperature that corresponds to the maximum derivative.

[2] = system: DC2.4 cells; test: Presentation of the CTL epitope […] by DCs (flow cytometry); assay type: cell-based, murine; details: 16 h incubation with DC2.4 cells
Method: Presentation of the CTL epitope, […], by DCs. Cells of a murine DC line (DC2.4, a gift from K. Rock)^(32) were plated at 2.5×10^5/500 μL/well in 24-well plates. 500 μL of OVA, […] peptide (SEQ ID NO: 22), or iTEPB-iTEPA-pOVA NP (SEQ ID NO: 56) (iTEP-pOVA NP hereafter) were dissolved in cell culture media and added to the wells containing DCs. The cells were further cultured for 16 hrs. at 37° C. with 5% CO2 before they were collected and washed with PBS. The MHC class I complex, H-2kb/[…] presented on DC surface was stained with a PE-tagged monoclonal antibody 25-D1.16 (Biolegend, 1:100 dilution) and quantified with flow cytometry (5×10^4 events collected per sample). The data are presented as MFI normalized to the MFI of untreated DC2.4 cells.
Presentation of […] epitope vaccine by DCs. The presentation was studied as previously described (Cho et al., J Drug Target, 2015; p 1-12). The concentration of iTEP-vaccine fusions (NPs) used in this experiment was 5 μM. The results of presentation were shown as mean fluorescence intensity (MFI) of 5000 treated, live cells in a given treatment, which were normalized to the MFI value of untreated DC2.4 cells.

[3] = system: B3Z cells; test: B3Z CD8+ T cell hybridoma activation assay; assay type: cell-based; details: DC2.4 cells pre-incubated with antigen
Method: B3Z CD8+ T cell hybridoma activation assay. B3Z cells (a gift from N. Shastri) are a CD8+ T-cell hybridoma engineered to secrete β-galactosidase when their T-cell receptors are engaged with an […]:H2K^b complex.^(33) To do this assay, 1×10^5 DC2.4 cells/well were set in 96-well plates. OVA, […] peptide (SEQ ID NO: 22), and iTEP-pOVA NP (SEQ ID NO: 56) at indicated concentrations were loaded into the cell culture for 16 hours and then washed away. 1×10^5 B3Z cells/well were added to the DC2.4 cell culture and co-cultured with DC2.4 cells for 24 hours. The cells were washed with PBS before 100 μL of lysis buffer (PBS with 100 mM 2-mercaptoethanol, 9 mM MgCl2, 0.125% NP-40) together with 0.15 mM chlorophenol red β-galactoside were added into the wells. After the plates were incubated at 37° C. for 4 hours, the reaction was stopped with 50 μL/well of 15 mM EDTA and 300 mM glycine. The OD at 570 nm was measured and the OD at 630 nm was used as reference. The OD was used as an indicator as activation status of B3Z cells.
Activation of B3Z hybridoma (CD8+T) cells. This assay was done with a protocol described previously (Cho et al., J Drug Target, 2015; p 1-12).

[4] = system: C57BL/6 mice; test: In vivo CTL response by ELISPOT IFN-γ assay; parameters: species or system mouse; details: subcutaneous immunization twice, 2 nmol SIINFEKL equivalents per mouse with IFA
Source text: in vivo CTL response by ELISPOT IFN-γ assay. C57BL/6 mice were immunized subcutaneously with each immunogen (2 nmol […] equivalents per mouse) together with incomplete Freunds Adjuvants (IFA; Sigma, USA) at their left flanks. The immunization was repeated at their right flanks 1 week later. At 10 days after the second immunization, mice were sacrificed, and the spleens were harvested. The spleens of the sacrificed mice were teased into single-cell suspensions and filtered through nylon mesh […]. Red blood cells were lysed by Ammonium-Chloride-Potassium (ACK) lysing buffer. The washed and resuspended single cells were counted using Contess™ Automated Cell Counter (Invitrogen, USA). Splenocytes (8×10^6/mL) were incubated in RPMI-1640 medium supplemented with 10% heat inactivated fetal calf serum, 2 mM glutamine, 100 units/mL penicillin and 100 μg/mL streptomycin (Invitrogen, USA), in a 14 mL polypropylene tissue culture tube for 48 hours, with or without […] peptide (SEQ ID NO: 22) (2.5 μg/mL). The cells were then washed and recounted. 2×10^5 live cells in 100 μL medium were then loaded into wells of 96-well Filtration plates (Millipore, USA) coated with […] of capture anti-mouse IFN-γ mAb (Clone: R4-6A2, Biolegend, USA). Triplicates were set up for each condition. Cells were discarded after 24 hours of culture and the wells were incubated with […] of detectionbiotinylated, anti-mouse IFN-γ mAb overnight (Clone: XMG1.2-Biotin, Biolegend, USA). After the unbound antibodies were washed away from the wells, the bound antibodies were detected using horseradish peroxidase (HRP Avidin, Biolegend, USA) together with 3-amino-9-ethyl-carbazole (AEC) substrate (Sigma, USA). The membranes on the bottom of the wells were peeled off, and color spots on the membrane were scanned. The spots were automatically counted using ImageJ software.
Animal immunization. C57BL/6 mice were immunized by the subcutaneous injection of 2 nmol iTEP NP vaccines and incomplete Freunds Adjuvants (IFA; Sigma, USA) at their left flanks. Immunization was repeated at their right flanks after 1 week. On day 10 after the second immunization, mice were sacrificed, and the spleens were harvested.

[5] = Hydrodynamic diameter by dynamic light scattering (DLS); assay type: physicochemical
Method: Characterization of the size of iTEPB-pOVA and iTEPB-iTEPA-pOVA fusions. The particle size distribution of the iTEP fusions was determined by dynamic light scattering (DLS) using a Zetasizer Nano-ZS instrument (Malvern Instruments, Malvern, UK) as previously described.^(29) The fusions were prepared at 5 μM and 25 μM in PBS and equilibrated at 37° C. for the measurement. The reported results represented the average particle size by number.
Dynamic light scattering (DLS) measurement. The measurement was carried out as previously described. iTEP, iTEP-MPBH-ABA-Sali conjugate, or PTX NP were measured at 25 μM in PBS at 37° C. using a Malvern Zetasizer Nano system (Malvern, Chester County, PA, USA).
Characterization of hydrodynamic diameters of iTEP-vaccine fusions. Hydrodynamic diameters of iTEP-vaccine fusions were determined by dynamic light scattering (DLS) using a Zetasizer Nano-ZS instrument (Malvern Instruments, Malvern, UK) as previously described (Zhao et al., Mol Pharm, 2014; 11(8):2703-12). The samples were resuspended at concentrations of 5, 25, 50, and 100 μM in PBS and sat at room temperature overnight before measurement. Some samples were kept in 5% C02 at 37° C. for 16 h before DLS measurement. Hydrodynamic diameter results of the sample of 5 μM concentration were reported because they were not affected by the used sample concentrations. Hydrodynamic diameters were presented using the size-by-number distribution approach. Z-average values and sizes-by-intensity data, however, were also reported.

G(VPGLGAGAG)96GG [iTEPD]
Relative Hydrophobicity [1]: High | (heating) Tt ([1]; 5 μM): 42.3 °C | Tt (cooling) [1]: 35.20 ± 0.57 °C | Tt (heating) [1]: 38.6 °C and 38.60 ± 1.20 °C

SIINFEKL [reference compound]
presentation of SIINFEKL by DCs [2]: much stronger | activation of B3Z cells [3]: highest activity among all treatments | SIINFEKL-restricted activated splenocytes (INF-γ ELISPOT) [4]: 60 spots per million seeded splenocytes

B1: G(GAGVPG)70GG (protein)
chain: GVPGFGAGAGVPGFGAGAGVPGFGAGAGVPGFGAGAGVPGFGAGAGVPGFGAGAGVPGFGAGAGVPGFGAGAGVPGFGAGAGVPGFGAGAGVPGFGAGAGVPGFGAGAGVPGFGAGAGVPGFGAGAGVPGFGAGAGVPGFGAGAGVPGFGAGAGVPGFGAGAGVPGFGAGAGVPGFGAGAGVPGFGAGAGGG
Relative Hydrophobicity [1]: Low | temperature of coacervate formation ([1]; in H2O, tested temperature range 20-80° C.): did not form coacervates

B2: ovalbumin (protein)
chain: GSIGAASMEFCFDVFKELKVHHANENIFYCPIAIMSALAMVYLGAKDSTRTQINKVVRFDKLPGFGDSIEAQCGTSVNVHSSLRDILNQITKPNDVYSFSLASRLYAEERYPILPEYLQCVKELYRGGLEPINFQTAADQARELINSWVESQTNGIIRNVLQPSSVDSQTAMVLVNAIVFKGLWEKAFKDEDTQAMPFRVTEQESKPVQMMYQIGLFRVASMASEKMKILELPFASGTMSMLVLLPDEVSGLEQLESIINFEKLTEWTSSNVMEERKIKVYLPRMKMEEKYNLTSVLMAMGITDVFSSSANLSGISSAESLKISQAVHAAHAEINEAGREVVGSAEAGVDAASVSEEFRADHPFLFCIKHIATNAVLFFGRCVSP
notes: positive control protein antigen
SIINFEKL-restricted activated splenocytes (INF-γ ELISPOT) [4]: 61 spots per million seeded splenocytes

B3: G(GVLPGVG)28GG (protein)
chain: GGAGVPGGAGVPGGAGVPGGAGVPGGAGVPGGAGVPGGAGVPGGAGVPGGAGVPGGAGVPGGAGVPGGAGVPGGAGVPGGAGVPGGAGVPGGAGVPGGAGVPGGAGVPGGAGVPGGAGVPGGAGVPGGAGVPGGAGVPGGAGVPGGAGVPGGAGVPGGAGVPGGAGVPGGAGVPGGAGVPGGAGVPGGAGVPGGAGVPGGAGVPGGAGVPGGAGVPGGAGVPGGAGVPGGAGVPGGAGVPGGAGVPGGAGVPGGAGVPGGAGVPGGAGVPGGAGVPGGAGVPGGAGVPGGAGVPGGAGVPGGAGVPGGAGVPGGAGVPGGAGVPGGAGVPGGAGVPGGAGVPGGAGVPGGAGVPGGAGVPGGAGVPGGAGVPGGAGVPGGAGVPGGAGVPGGAGVPGGAGVPGGAGVPGGAGVPGGAGVPGGG
Relative Hydrophobicity [1]: High | Tt (cooling) [1]: 29.70 ± 0.05 °C | Tt (heating) [1]: 33.30 ± 0.09 °C

B4: iTEPB-pOVA: a fusion of the hydrophilic iTEPB and the vaccine, soluble (SEQ ID NO: 57) (protein)
chain: GAGVPGGAGVPGGAGVPGGAGVPGGAGVPGGAGVPGGAGVPGGAGVPGGAGVPGGAGVPGGAGVPGGAGVPGGAGVPGGAGVPGGAGVPGGAGVPGGAGVPGGAGVPGGAGVPGGAGVPGGAGVPGGAGVPGGAGVPGGAGVPGGAGVPGGAGVPGGAGVPGGAGVPGGAGVPGGAGVPGGAGVPGGAGVPGGAGVPGGAGVPGGAGVPGGAGVPGGAGVPGGAGVPGGAGVPGGAGVPGGAGVPGGAGVPGGAGVPGGAGVPGGAGVPGGAGVPGGAGVPGGAGVPGGAGVPGGAGVPGGAGVPGGAGVPGGAGVPGGAGVPGGAGVPGGAGVPGGAGVPGGAGVPGGAGVPGGAGVPGGAGVPGGAGVPGGAGVPGGAGVPGGAGVPGGAGVPGGAGVPGGAGVPGGAGVPGGAGVPGCGGGGGGGGCGGGGGGGGCGGGGGGGGCGGGGGGGGCGGGGGGGGCGGGGGGGGCGGGGGGGGCGGGGGGGG
mean diameter / size (DLS) ([5]; 25 μM in PBS, 37° C., by number): less than 10 nm

B5: NH2-(GAGVPG)70-(…)8-COOH (protein)
chain: GGAGVPGGAGVPGGAGVPGGAGVPGGAGVPGGAGVPGGAGVPGGAGVPGGAGVPGGAGVPGGAGVPGGAGVPGGAGVPGGAGVPGGAGVPGGAGVPGGAGVPGGAGVPGGAGVPGGAGVPGGAGVPGGAGVPGGAGVPGGAGVPGGAGVPGGAGVPGGAGVPGGAGVPGGAGVPGGAGVPGGAGVPGGAGVPGGAGVPGGAGVPGGAGVPGGAGVPGGAGVPGGAGVPGGAGVPGGAGVPGGAGVPGGAGVPGGAGVPGGAGVPGGAGVPGGAGVPGGAGVPGGAGVPGGAGVPGGAGVPGGAGVPGGAGVPGGAGVPGGAGVPGGAGVPGGAGVPGGAGVPGGAGVPGGAGVPGGAGVPGGAGVPGGAGVPGGAGVPGGAGVPGGAGVPGGAGVPGGAGVPGGAGVPGGAGVPGGAGVPGGGVLPGVGGVLPGVGGVLPGVGGVLPGVGGVLPGVGGVLPGVGGVLPGVGGVLPGVGGVLPGVGGVLPGVGGVLPGVGGVLPGVGGVLPGVGGVLPGVGGVLPGVGGVLPGVGGVLPGVGGVLPGVGGVLPGVGGVLPGVGGVLPGVGGVLPGVGGVLPGVGGVLPGVGGVLPGVGGVLPGVGGVLPGVGGVLPGVGGVLPGVGGVLPGVGGVLPGVGGVLPGVGGVLPGVGGVLPGVGGVLPGVGGVLPGVGGVLPGVGGVLPGVGGVLPGVGGVLPGVGGVLPGVGGVLPGVGGVLPGVGGVLPGVGGVLPGVGGVLPGVGGVLPGVGGVLPGVGGVLPGVGGVLPGVGGVLPGVGGVLPGVGGVLPGVGGVLPGVGGVLPGVGGVLPGVGG
hydrodynamic diameter (DLS) ([5]; 25 μM in PBS at 37° C.): 6.63±1.25 nm
